Measured values from patent publication US20240239893A1, “METHODS AND COMBINATIONS FOR THE TREATMENT OF CANCER USING IMMUNE CHECKPOINT INHIBITOR ANTIBODIES” (AstraZeneca AB, priority 2020, published 2024).

What was measured:
[1] = test system: advanced hepatocellular carcinoma (HCC); test: Randomized open-label multi-center clinical study of durvalumab and tremelimumab (Example 2): efficacy (ORR, OS, PFS); assay type: in vivo, human patients; conditions: for ORR, % / Median (95% CI) OS, mo: Table 1, per study arm; for Median (95% CI) OS, mo: 95% CI given; for Median PFS (95% CI): patients with advanced HCC, Kaplan-Meier (FIG. 11)
Description: Primary analysis of all tumor assessment-related endpoints was based on BICR assessments according to RECIST v1.1.
Evaluation of target lesions were classified as follows: • Complete Response—Disappearance of all target lesions. Any pathological lymph nodes (whether target or non-target) must have reduction in short axis to <10 mm (the sum may not be “0” if there are target nodes). • Partial Response—At least a 30% decrease in the sum of the diameters of target lesions, taking as reference the baseline sum diameters. • Progressive Disease—At least a 20% increase in the sum of diameters of target lesions, taking as reference the smallest sum on study (this includes the baseline sum if that is the smallest on study). […] (Note: The appearance of one or more new lesions may be considered progression.) • Stable Disease—Neither sufficient shrinkage to qualify for PR nor sufficient increase to qualify for PD, taking as reference the smallest sum of diameters while on study.
The study disclosed below is a randomized, open-label, multi-center, global, clinical study to assess the efficacy and safety of durvalumab monotherapy and durvalumab plus tremelimumab combination therapy versus sorafenib in the treatment of immune checkpoint inhibitor-naïve patients with HCC who progressed on, were intolerant to, or refused sorafenib. In the foregoing disclosure, a flat-dose regimen of 1500 mg (approximately equivalent to 20 mg/kg) of durvalumab plus 300 mg (equivalent to 4 mg/kg) of tremelimumab was used in this study.
The study population included patients 18 years of age or older with advanced HCC, Barcelona Clinic Liver Cancer Stage B (not eligible for locoregional therapy) or stage C, and Child-Pugh A classification liver disease. Patients must not have received any prior systemic therapy for HCC. Patients were stratified according to macrovascular invasion (yes versus no), etiology of liver disease (hepatitis B virus [confirmed HBV] versus hepatitis C virus [confirmed HCV] versus others), and performance status (Eastern Cooperative Oncology Group [ECOG] 0 versus 1).
A total of 332 patients were enrolled (T300+D, n=75; durvalumab, n=104; tremelimumab, n=69; T75+D, n=84). Patients were randomized in an equal ratio to groups treated with durvalumab 1500 mg monotherapy (D), tremelimumab 750 mg monotherapy (T), combination therapy with durvalumab 1500 mg plus tremelimumab 75 mg×4 doses (T75+D) followed by durvalumab Q4W, combination therapy with durvalumab 1500 mg plus tremelimumab 300 mg×1 dose (T 300+D) followed by durvalumab Q4W. Upon closure to further enrollment into the T75+D arm, patients were randomized in an equal ratio to groups treated with D, T300+D, and Sorafenib. Durvalumab and tremelimumab were administered via intravenous (IV) infusion every 4 weeks (Q4W). Sorafenib was administered orally BID (see FIGS. 3 and 4).
(§1) Tremelimumab 750 mg via IV infusion Q4W starting at Week 0 for seven doses and then Q12W until confirmed PD, unacceptable toxicity, or any discontinuation criterion was met. (Note: If a patient's weight decreased to ≤30 kg, the patient received weight-based dosing of tremelimumab 10 mg/kg Q4W, until the weight increased to >30 kg, at which point the patient received the flat dose of tremelimumab 750 mg Q4W).
as §1, with “• Durvalumab 1500” for “Tremelimumab 750”, “0” for “0 for seven doses and then Q12W”, “durvalumab 20” for “tremelimumab 10”, “durvalumab 1500” for “tremelimumab 750”, “Q4W.) […]” for “Q4W).”

[2] = test system: peripheral blood T cell receptors (T-cell clones); test: Molecular analysis of peripheral blood T cell receptors (TCR clonality, immunoSeq) on day 29; assay type: in vivo, human patients; conditions: for Median expanded T cell clones at Day 29, n: Day 29, first cycle of Q4W dosing, immunoSeq paired samples
Description: This trend was not seen with monotherapy D or the lower dose T combination (T75+D) (FIG. 15). Additionally, greater clonal expansion of T-cells was associated with better OS and seen in D+T combination arms (FIG. 16).

[3] = test system: proliferating CD8+ Ki67+ T cells; test: Exposure-response model: tremelimumab trough concentration vs change from baseline of CD8+ Ki67+ T cell counts; assay type: in vivo, patients with uHCC
Experimental: (§2) Finally, an exposure-response model was developed to describe the relationship between tremelimumab exposure and proliferating CD8+ Ki67+ T cells in patients with uHCC. Relationships between tremelimumab trough concentration after the first dose (Cmin) and the maximum change from baseline (CFB) for CD8+ Ki67+ T cell counts were evaluated using linear and non-linear regression models. Covariate effects were evaluated on the model intercept and the drug effect (Emax) using a stepwise search approach. The relationship between CD8+Ki67+ T cell count CFB and tremelimumab trough concentration was best described by an Emax model. The only statistically significant and well estimated covariate effect was the baseline CD8+ Ki67+ T cell count on Emax. The maximum effect was higher in patients with lower baseline CD8+ Ki67+ T cell counts and lower in patients with higher baseline CD8+ Ki67+ T cell counts. At the 10th, median, and 90th percentiles of baseline CD8+(3, 9, and 25 cells/uL), the maximum effect is 593%, 341%, and 77.9% change from baseline, respectively.

[4] = Tremelimumab trough concentration after the first dose (Cmin); assay type: in vivo, patients with uHCC; conditions: 300 mg tremelimumab
Experimental: as §2

durvalumab: human monoclonal antibody directed against human PD-L1; in Example 2 given as 1500 mg monotherapy Q4W (D)
ORR, % [1]: 10.6%
Median (95% CI) OS, mo [1]: 13.6 mo
Median PFS (95% CI) [1]: 2.07 (1.84-2.83) months
clonal expansion of T cells in responders compared to non-responders ([2]; Day 29 (FIG. 15)): not seen
Median expanded T cell clones at Day 29, n [2]: 32 (13, 46)

B1: tremelimumab: anti-CTLA-4 antibody; in Example 2 given as 750 mg monotherapy Q4W for seven doses then Q12W (T) (antibody)
VH: GVVQPGRSLRLSCAASGFTFSSYGMHWVRQAPGKGLEWVAVIWYDGSNKYYADSVKGRFTISRDNSKNTLYLQMNSLRAEDTAVYYCARDPRGATLYYYYYGMDVWGQGTTVTVSSASTKGPSVFPLAPCSRSTSESTAALGCLVKDYFPEPVTVSWNSGALTSGVH
VL: PSSLSASVGDRVTITCRASQSINSYLDWYQQKPGKAPKLLIYAASSLQSGVPSRFSGSGSGTDFTLTISSLQPEDFATYYCQQYYSTPFTFGPGTKVEIKRTVAAPSVFIFPPSDEQLKSGTASVVCLLNNFYPREAKV
modifications: heavy chain variable region; light chain variable region
ORR, % [1]: 7.2%
Median (95% CI) OS, mo [1]: 15.1 mo
Median PFS (95% CI) [1]: 2.69 (1.87-5.29) months
Median expanded T cell clones at Day 29, n [2]: 100 (50, 160)
maximum effect (Emax), change from baseline of CD8+ Ki67+ T cell count ([3]; 10th percentile of baseline CD8+ (3 cells/uL)): 593%
maximum effect (Emax), change from baseline of CD8+ Ki67+ T cell count ([3]; 90th percentile of baseline CD8+ (25 cells/uL)): 77.9%
estimated half-maximal effective concentration (EC50) ([3]; Emax model, CD8+Ki67+ T cell count change from baseline vs tremelimumab Cmin): 5.24 µg/mL
maximum effect (Emax), change from baseline of CD8+ Ki67+ T cell count ([3]; median baseline CD8+ (9 cells/uL)): 341%
median Cmin (trough concentration after the first dose) [4]: 12900 ng/mL
